# According to paper PMC10201434, “The DNA replication initiation protein DnaD recognises a specific strand of the Bacillus subtilis chromosome origin” (Nucleic Acids Research, 2021):
# Where a chain is given by its changes, count along the chain named.
# T1: DnaD L22A (Bacillus subtilis 168CA, UniProt P39787 1-232, L22A)
# T1 sequence: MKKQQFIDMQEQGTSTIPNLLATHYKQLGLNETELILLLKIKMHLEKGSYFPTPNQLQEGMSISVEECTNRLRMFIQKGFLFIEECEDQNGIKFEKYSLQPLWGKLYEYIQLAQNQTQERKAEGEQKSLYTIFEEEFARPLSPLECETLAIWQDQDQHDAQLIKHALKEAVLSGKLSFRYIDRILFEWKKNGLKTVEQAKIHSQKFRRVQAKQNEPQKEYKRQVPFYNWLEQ
# T2: DnaD1-224 (Bacillus subtilis 168CA, UniProt P39787 1-224)
# T2 sequence: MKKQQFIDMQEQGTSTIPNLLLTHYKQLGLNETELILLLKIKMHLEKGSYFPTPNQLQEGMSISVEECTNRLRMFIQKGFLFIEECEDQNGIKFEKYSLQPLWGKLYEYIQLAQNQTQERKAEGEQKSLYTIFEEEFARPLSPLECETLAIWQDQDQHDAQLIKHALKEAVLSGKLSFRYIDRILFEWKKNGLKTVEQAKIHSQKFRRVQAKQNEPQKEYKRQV
# T3: DnaD F6A (Bacillus subtilis 168CA, UniProt P39787 1-232, F6A)
# T3 sequence: T1 sequence with F6A, A22L
# T4: DnaD1-205 (Bacillus subtilis 168CA, UniProt P39787 1-205)
# T4 sequence: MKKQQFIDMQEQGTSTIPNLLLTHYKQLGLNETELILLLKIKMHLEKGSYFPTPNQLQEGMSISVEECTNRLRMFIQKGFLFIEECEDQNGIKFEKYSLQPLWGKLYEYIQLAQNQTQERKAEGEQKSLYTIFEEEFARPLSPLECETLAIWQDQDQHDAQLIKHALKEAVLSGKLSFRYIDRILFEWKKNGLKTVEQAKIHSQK
# T5: DnaD (Bacillus subtilis 168CA, UniProt P39787 1-232)
# T5 sequence: T1 sequence with A22L
# B1: DnaD^1-205 (truncation lacking the entire C-terminal tail) (domain or fragment, Bacillus subtilis, UniProt P39787 1-205, looked up)
# chain: T4 sequence
# notes: DnaD, Bacillus subtilis 168CA, residues 1-205; variant lacking the entire DnaD^CTT; made from pSF17; source: E. coli BL21(DE3)-pLysS, purified (HisTrap, His14-SUMO tag digested, second HisTrap flow-through)
# B2: DnaD^1-224 (truncation lacking the DnaB interaction region, the last eight residues) (domain or fragment, Bacillus subtilis, UniProt P39787 1-224, looked up)
# chain: T2 sequence
# notes: DnaD, Bacillus subtilis 168CA, residues 1-224; variant lacking the last eight amino acid residues of the DnaD^CTT; made from pSF17; source: E. coli BL21(DE3)-pLysS, purified (HisTrap, His14-SUMO tag digested, second HisTrap flow-through)
# Target: the molecule itself
# Assay: SEC-MALS; 20°C; 40 mM Tris-HCl pH 8, 500 mM NaCl, 1 mM EDTA, 20 mM imidazole, 2.5% v/v glycerol; 100 μl injected
# Details: not given
row,Binder,stoichiometry N
1,B1,4

# Target: the molecule itself
# Assay: SEC; Superdex 200 Increase 10/300GL, 4°C; 40 mM Tris-HCl pH 8, 500 mM NaCl, 1 mM EDTA, 20 mM imidazole; 500 μl samples
# Details: not given
row,Binder,stoichiometry N
1,B2,4

# Target: T1, DnaD L22A
# Assay: fluorescence polarisation; FP: 10 mM HEPES-KOH pH 7.5, 1 mM Mg acetate, 100 mM K glutamate, 20 C, 1.875 nM DNA, DnaD up to 500 nM, 10 min; Bpa crosslinking conditions not in material
# Details: protein: recombinant; tags: His14-SUMO tag removed; label: fluorescein 5'
row,Binder,binding result
1,CTCCTCCCCCCCCTCCTC (ssDNA) [polyC with two TnnT (oCW1128)],no binding

# Target: T2, DnaD1-224
# Assay: as above
# Details: protein: recombinant; tags: His14-SUMO tag removed; chain copies: 4; label: fluorescein 5'
row,Binder,binding result
1,TTTTTTTTTTTTTTTTTTTTTTTTTTTTTTTTTTTTTTTT (ssDNA) [polyT(40) (oCW837)],binds

# Target: T3, DnaD F6A
# Assay: as above
# Details: protein: recombinant; tags: His14-SUMO tag removed; chain copies: 2; label: fluorescein 5'
row,Binder,binding result
1,CTCCTCCCCCCCCTCCTC (ssDNA) [polyC with two TnnT (oCW1128)],no binding

# Target: T4, DnaD1-205
# Assay: as above
# Details: protein: recombinant; tags: His14-SUMO tag removed; chain copies: 4; label: fluorescein 5'
row,Binder,binding result
1,TTTTTTTTTTTTTTTTTTTTTTTTTTTTTTTTTTTTTTTT (ssDNA) [polyT(40) (oCW837)],no binding

# Target: T5, DnaD
# Assay: as above
# Details: protein: recombinant; tags: His14-SUMO tag removed; chain copies: 4; label: fluorescein 5'
row,Binder,binding result
1,TTTTTTTTTTTTTTTTTTTTTTTTTTTTTTTTTTTTTTTT (ssDNA) [polyT(40) (oCW837)],binds
2,CTCCTCCCCCCCCTCCTC (ssDNA) [polyC with two TnnT (oCW1128)],binds
3,CTCCTCCCCTCCTCCCCC (ssDNA) [TnnT spacing (oCW1494)],binds
4,CTCCTTCCTCCCCCCCCC (ssDNA) [TnnT juxtaposed (oCW1498)],binds
5,CTCCTCCCTCCTCCCCCC (ssDNA) [TnnT spacing (oCW1495)],binds
6,CTCCTCCCCCCCTCCTCC (ssDNA) [TnnT spacing (oCW1491)],binds
7,TCACTCAAAGGCGGTAATAC (ssDNA) [ssDNA 1 (oCW1036)],binds
8,CTCCTCCTCCTCCCCCCC (ssDNA) [TnnT spacing (oCW1496)],binds
9,CTACTATTACTTCTACTA (ssDNA) [DRE (oCW1039)],binds
10,TTTTTTTTTTTTTTT (ssDNA) [polyT(15) (oCW1029)],binds
11,CTCCTCCCCCTCCTCCCC (ssDNA) [TnnT spacing (oCW1493)],binds
12,TTTTTTTTTT (ssDNA) [polyT(10) (oCW834)],no binding
13,CTCCTCTCCTCCCCCCCC (ssDNA) [TnnT spacing (oCW1497)],binds
14,CTCCTCCCCCCTCCTCCC (ssDNA) [TnnT spacing (oCW1492)],binds
15,GTATTACCGCCTTTGAGTGA (ssDNA) [ssDNA 2 (oCW1124)],binds
